Target: extracellular domain of Toll-like receptor 4 (TLR4) (UniProt O00206 24-631)
Experiment: ITC

Chain of extracellular domain of Toll-like receptor 4 (TLR4) (O00206 24-631): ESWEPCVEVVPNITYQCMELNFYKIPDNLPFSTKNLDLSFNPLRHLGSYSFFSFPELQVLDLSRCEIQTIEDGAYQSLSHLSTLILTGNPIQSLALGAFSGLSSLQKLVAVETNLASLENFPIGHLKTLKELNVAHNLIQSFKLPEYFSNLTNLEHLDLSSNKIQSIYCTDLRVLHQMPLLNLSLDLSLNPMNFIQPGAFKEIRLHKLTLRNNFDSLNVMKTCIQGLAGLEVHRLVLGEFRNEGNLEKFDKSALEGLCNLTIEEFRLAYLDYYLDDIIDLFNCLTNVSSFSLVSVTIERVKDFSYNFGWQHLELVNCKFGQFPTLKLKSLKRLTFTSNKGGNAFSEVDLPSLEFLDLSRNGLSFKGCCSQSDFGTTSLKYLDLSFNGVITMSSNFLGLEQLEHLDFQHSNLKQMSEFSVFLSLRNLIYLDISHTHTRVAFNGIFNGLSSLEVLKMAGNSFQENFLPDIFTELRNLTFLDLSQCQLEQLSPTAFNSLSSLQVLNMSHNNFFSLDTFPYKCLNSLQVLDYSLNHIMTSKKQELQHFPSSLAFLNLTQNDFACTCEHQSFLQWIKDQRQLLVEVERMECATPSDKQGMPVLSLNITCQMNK

B1: Cold-inducible RNA binding protein (CIRP) (natural protein, UniProt Q14011 1-172, looked up)
chain: MASDEGKLFVGGLSFDTNEQSLEQVFSKYGQISEVVVVKDRETQRSRGFGFVTFENIDDAKDAMMAMNGKSVDGRQIRVDQAGKSSDNRSRGYRGGSAGGRGFFRGGRGRGRGFSRGGGDRGYGGNRFESRSGGYGGSRDYYSSRSQSGGYSDRSSGGSYRDSYDSYATHNE
modifications: 15N-labeled (in the NMR titration)
In the case of B1, the Kd is reported as 3.72 ± 1.98 µM.
